This note sets out measurements from US11402384B2 (Duke University, priority 2015, dated 2022).

Where a chain is given by its changes, count along the chain named. In names and notes the source's numbering stands. Like-named read-outs stand apart in the source and are kept apart here.

The test in a line: Ratiometric fluorescence glucose titration of fluorescent conjugates. Conditions: tsGBP 13C affinity mutants, Acrylodan or Badan conjugates. It counts as binding. Further details: key to Shape (fluorescence response to glucose) / Change (fluorescence response to glucose): m, monochromatic; d, dichromatic (i.e. spectral shape change); 0, no change. Summed up: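 Single-cysteine glucose-binding protein mutants labelled site-specifically with thiol-reactive environmentally sensitive fluorophores; emission spectra recorded during glucose titration to detect ligand-mediated intensity and spectral-shape changes for ratiometric read-out. Temperature- and ligand-dependent fluorescence landscapes acquired in 1K steps; binding fitted to single-site fractional saturation.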

The mark [1] stands for this setting: read-out: Glucose affinity ^appKd.
Setting [2] is: read-out: Glucose affinity ^trueKd.

B1: W8F B: tsGBP2.13C.W8F (SEQ ID NO: 37) Badan conjugate (conjugate)
chain: MKLEIFSFWAGDCGPALEALIRLYKQKYPGVEVINATVTGGAGVNAKAVLKTRMLGGDPPDTFQVHAGQELIGTWVVADRMEDLTSLFRQEGWLQAFPKGLIDLLSYKGGIWSVPVNIHRSNVMWYIPAKLKEWGVTPPKTWAEFLATAQTLKRKGLEAPLALGENWTQQHLWESVALATLGADGWNNLWSGKLKFTDPKAVAVWETFGKVLDAANKDAAGLSWQQAVDRVVQGKAAFNIMGDWAAGYMSTTLKLKPGTDFAWTPSPGTSGIFMMLSDSFGLPKGAKNRQNAINWLKLVGSKEGQDTFNPLKGSIAARLDSDPAKYNAYGQSAMKDWKSNRIVGSLVHGAVAPESFMSQFGTVMEIFLQSRNPQAAANAAQAIANQVGLGRGGSHHHHHH
modifications: Badan conjugate; tsGBP2.13C.W8F (13C, 8F double substitution mutant)
For the molecule B1, the “Change (fluorescence response to glucose)” value (“Change” for short) was found to be 0.

B2: D278N B: tsGBP2.13C.D278N (SEQ ID NO: 50) Badan conjugate (conjugate)
chain: B1 chain with F8W, D278N
modifications: Badan conjugate; tsGBP2.13C.D278N (13C, 278N double substitution mutant with signal peptide replaced with M and a GGSHHHHHH at C-terminus)
Regarding B2, the “Change” value is “m/d”. Under setting [1], the Kd stood at 99 mM.

B3: W9M B: tsGBP2.13C.W9M (SEQ ID NO: 41) Badan conjugate (conjugate)
chain: B1 chain with F8W, W9M
modifications: Badan conjugate; tsGBP2.13C.W9M (13C 9M double substitution mutant with signal peptide replaced with M and a GGSHHHHHH at C-terminus)
For B3, the “Change” value is given as “m^c”.

B4: H66Q B: tsGBP2.13C.H66Q (SEQ ID NO: 46) Badan conjugate (conjugate)
chain: B1 chain with F8W, H66Q
modifications: Badan conjugate; tsGBP2.13C.H66Q (13C, 66Q double substitution mutant with signal peptide replaced with M and a GGSHHHHHH at C-terminus)
With B4, the “Change” value is given as “m”. For the same molecule, the Kd under setting [1] is about 0.1 mM. Moreover, the Kd under setting [2] is about 0.09 mM.

B5: W244Y B: tsGBP2.13C.W244Y (SEQ ID NO: 49) Badan conjugate (conjugate)
chain: B1 chain with F8W, W244Y
modifications: Badan conjugate; tsGBP2.13C.W244Y (13C, 244Y double substitution mutant with signal peptide replaced with M and a GGSHHHHHH at C-terminus)
Take B5: the Kd under setting [1] came out at 4.1 mM and the Kd under setting [2] stood at 3.8 mM.

B6: H66Q A: tsGBP2.13C.H66Q (SEQ ID NO: 46) Acrylodan conjugate (conjugate)
chain: B1 chain with F8W, H66Q
modifications: Acrylodan conjugate; tsGBP2.13C.H66Q (13C, 66Q double substitution mutant with signal peptide replaced with M and a GGSHHHHHH at C-terminus)
B6: the Kd is about 20 mM under setting [1] and about 7 mM under setting [2].

B7: W244M B: tsGBP2.13C.W244M (SEQ ID NO: 47) Badan conjugate (conjugate)
chain: B1 chain with F8W, W244M
modifications: Badan conjugate; tsGBP2.13C.W244M (13C, 244M double substitution mutant with signal peptide replaced with M and a GGSHHHHHH at C-terminus)
B7: the Kd runs as follows: under setting [1], about 5 mM; under setting [2], about 7 mM.

B8: W8Y A: tsGBP2.13C.W8Y (SEQ ID NO: 39) Acrylodan conjugate (conjugate)
chain: B1 chain with F8Y
modifications: Acrylodan conjugate; tsGBP2.13C.W8Y (13C, 8Y double substitution mutant with signal peptide replaced with M and a GGSHHHHHH at C-terminus)
Regarding B8, the “Change” value was “m/d^c”.

B9: W244Y A: tsGBP2.13C.W244Y (SEQ ID NO: 49) Acrylodan conjugate (conjugate)
chain: B1 chain with F8W, W244Y
modifications: Acrylodan conjugate; tsGBP2.13C.W244Y (13C, 244Y double substitution mutant with signal peptide replaced with M and a GGSHHHHHH at C-terminus)
As to B9, the Kd under setting [1] was 5.6 mM and the Kd under setting [2] came out at 7.8 mM.

B10: Q64M B: tsGBP2.13C.Q64M (SEQ ID NO: 45) Badan conjugate (conjugate)
chain: B1 chain with F8W, Q64M
modifications: Badan conjugate; tsGBP2.13C.Q64M (13C, 64M double substitution mutant with signal peptide replaced with M and a GGSHHHHHH at C-terminus)
On to B10, for which the “Change” value is “m”.

B11: W8M B: tsGBP2.13C.W8M (SEQ ID NO: 38) Badan conjugate (conjugate)
chain: B1 chain with F8M
modifications: Badan conjugate; tsGBP2.13C.W8M (13C, 8M double substitution mutant with signal peptide replaced with M and a GGSHHHHHH at C-terminus)
In the case of B11, the “Change” value is “m”.

B12: W9F A: tsGBP2.13C.W9F (SEQ ID NO: 40) Acrylodan conjugate (conjugate)
chain: B1 chain with F8W, W9F
modifications: Acrylodan conjugate; tsGBP2.13C.W9F (13C 9F double substitution mutant with signal peptide replaced with M and a GGSHHHHHH at C-terminus)
With B12, the “Change” value was “m”.

B13: Q64M A: tsGBP2.13C.Q64M (SEQ ID NO: 45) Acrylodan conjugate (conjugate)
chain: B1 chain with F8W, Q64M
modifications: Acrylodan conjugate; tsGBP2.13C.Q64M (13C, 64M double substitution mutant with signal peptide replaced with M and a GGSHHHHHH at C-terminus)
Regarding B13, the “Change” value is “m/d”.

B14: W8Y B: tsGBP2.13C.W8Y (SEQ ID NO: 39) Badan conjugate (conjugate)
chain: B1 chain with F8Y
modifications: Badan conjugate; tsGBP2.13C.W8Y (13C, 8Y double substitution mutant with signal peptide replaced with M and a GGSHHHHHH at C-terminus)
In the case of B14, the “Change” value is on record as 0.

B15: W9F B: tsGBP2.13C.W9F (SEQ ID NO: 40) Badan conjugate (conjugate)
chain: B1 chain with F8W, W9F
modifications: Badan conjugate; tsGBP2.13C.W9F (13C 9F double substitution mutant with signal peptide replaced with M and a GGSHHHHHH at C-terminus)
Take B15: the “Change” value was 0.

B16: W9Y B: tsGBP2.13C.W9Y (SEQ ID NO: 42) Badan conjugate (conjugate)
chain: B1 chain with F8W, W9Y
modifications: Badan conjugate; tsGBP2.13C.W9Y (13C, 9Y double substitution mutant with signal peptide replaced with M and a GGSHHHHHH at C-terminus)
Take B16: the “Change” value is on record as “m”.

B17: W9M A: tsGBP2.13C.W9M (SEQ ID NO: 41) Acrylodan conjugate (conjugate)
chain: B1 chain with F8W, W9M
modifications: Acrylodan conjugate; tsGBP2.13C.W9M (13C 9M double substitution mutant with signal peptide replaced with M and a GGSHHHHHH at C-terminus)
As for B17, the “Change” value was “m”.

B18: W244M A: tsGBP2.13C.W244M (SEQ ID NO: 47) Acrylodan conjugate (conjugate)
chain: B1 chain with F8W, W244M
modifications: Acrylodan conjugate; tsGBP2.13C.W244M (13C, 244M double substitution mutant with signal peptide replaced with M and a GGSHHHHHH at C-terminus)
Take B18: the Kd by setting is: under setting [1], about 40 mM; under setting [2], about 20 mM.

B19: D278N A: tsGBP2.13C.D278N (SEQ ID NO: 50) Acrylodan conjugate (conjugate)
chain: B1 chain with F8W, D278N
modifications: Acrylodan conjugate; tsGBP2.13C.D278N (13C, 278N double substitution mutant with signal peptide replaced with M and a GGSHHHHHH at C-terminus)
As to B19, the Kd reads like this: under setting [1], about 100 mM; under setting [2], about 100 mM.
